# Laboratory results published in paper PMC7469494 (Autophagy, 2019).
# B1: Vac8[40–578] (domain or fragment, S. cerevisiae, UniProt P39968 40-578, looked up)
# chain: QLDFYSGGPLKALTTLVYSDNLNLQRSAALAFAEITEKYVRQVSREVLEPILILLQSQDPQIQVAACAALGNLAVNNENKLLIVEMGGLEPLINQMMGDNVEVQCNAVGCITNLATRDDNKHKIATSGALIPLTKLAKSKHIRVQRNATGALLNMTHSEENRKELVNAGAVPVLVSLLSSTDPDVQYYCTTALSNIAVDEANRKKLAQTEPRLVSKLVSLMDSPSSRVKCQATLALRNLASDTSYQLEIVRAGGLPHLVKLIQSDSIPLVLASVACIRNISIHPLNEGLIVDAGFLKPLVRLLDYKDSEEIQCHAVSTLRNLAASSEKNRKEFFESGAVEKCKELALDSPVSVQSEISACFAILALADVSKLDLLEANILDALIPMTFSQNQEVSGNAAAALANLCSRVNNYTKIIEAWDRPNEGIRGFLIRFLKSDYATFEHIALWTILQLLESHNDKVEDLVKNDDDIINGVRKMADVTFERLQRSGIDVKNPGSNNNPSSNDNNSNNNDTGSEHQPVEDASLELYNITQQILQFLH
# Molecular target: the molecule itself
# Test: SAXS
protein,measurement,value
B1,binding result,binds
